Target: T1, His-OsNAC2 (Oryza sativa, UniProt Q7XUV6 1-343)
T1 sequence: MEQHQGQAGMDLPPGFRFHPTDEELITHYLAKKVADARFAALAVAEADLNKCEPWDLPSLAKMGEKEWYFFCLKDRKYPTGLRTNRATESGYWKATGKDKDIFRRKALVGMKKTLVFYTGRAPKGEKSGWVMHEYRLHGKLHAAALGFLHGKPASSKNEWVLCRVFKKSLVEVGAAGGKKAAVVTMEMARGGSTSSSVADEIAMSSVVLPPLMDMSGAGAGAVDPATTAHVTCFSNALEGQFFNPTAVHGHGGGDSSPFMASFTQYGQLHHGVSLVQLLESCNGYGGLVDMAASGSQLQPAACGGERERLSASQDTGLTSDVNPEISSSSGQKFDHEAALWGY
Test: EMSA

B1: probe-OsNAC2-59 (MITE in OsSCE1a promoter) (dsDNA)
DNA 1: TCCTTTGAGTCTATCTCTCTCATCCAATTCTTGTGTTTTTCCTGTGGTTCAATCAAACG
DNA 2: CGTTTGATTGAACCACAGGAAAAACACAAGAATTGGATGAGAGAGATAGACTCAAAGGA
- binding result: binds

Source: PMC11772321
